The values below come from patent publication US10913773B2, “Bicyclic peptidyl inhibitor of tumor necrosis factor-alpha” (Ohio State Innovation Foundation, priority 2016, dated 2021).

The Kd is the equilibrium constant for the complex coming apart.

First the molecules themselves.
B1: Anticachexin C1 Tyr5 → Ala, NNNK(FITC)-tagged (peptide)
peptide: [Phg]Y[dA]KA[dF]G[dK]H[Dap]NNNK(FITC′)-NH2
modifications: bridge (positions not given here) via trimesoyl″; not fully specified (N-terminus, bridges); also: feature: K4 labeled with FITC
B2: Anticachexin C1 Tyr2 → Ala, NNNK(FITC)-tagged (peptide)
peptide: [Phg]A[dA]KY[dF]G[dK]H[Dap]NNNK(FITC′)-NH2
modifications: bridge (positions not given here) via trimesoyl″; not fully specified (N-terminus, bridges); also: feature: K4 labeled with FITC

Starred links: 1 amine or outer side, 2 acyl side, 3 side chain; linkers in the order of their positions; H or OH if unused. Positions of bridges follow the written chain, without caps; N, C: chain ends. Non-standard residues stand in square brackets, D forms with d. Residues, ends and D or L forms follow the SMILES beside them. Groups on a side chain read outwards from the residue. Primed or numbered codes have the meaning given here. No end group written: not given here. *: point of attachment. Lys(5-FITC)NH2 = NC(=O)[C@H](CCCCNC(=S)Nc1ccc2c(c1)C(=O)OC21c2ccc(O)cc2Oc2cc(O)ccc21)N*; FITC(3) = fluorescein isothiocyanate (N6-fluorescein-thiocarbamoyl on Lys); FITC = O=C1OC2(c3ccc(O)cc3Oc3cc(O)ccc32)c2ccc(NC(=S)*)cc21; Trimesoyl = O=C(c1cc(C(=O)[*:2])cc(C(=O)[*:3])c1)[*:1]; trimesoyl″ = benzene-1,3,5-tricarbonyl scaffold; FITC′ = fluorescein isothiocyanate, on Lys NZ; Phg = N[C@H](C(=O)O)c1ccccc1; Nle = CCCC[C@H](N)C(=O)O; Dap = NC[C@H](N)C(=O)O; AEEA = NCCOCCOCC(=O)O; NHiPr = CC(C)N*

In the first test the target is T1, TNFα (Homo sapiens, UniProt P01375).
T1 construct: ybbR tag (13 aa) (N); made in house; host or cells: Escherichia coli
The test can be described thus: Fluorescence anisotropy (FA) binding of fluorescently labeled bicyclic peptides to TNFα. The following applies: His-9 replaced with Phe, relative to parent. How it is done:
FITC-labeled bicyclic peptide (50 or 100 nM) were incubated with varying concentrations of TNFα (0-5 μM) in 30 mM HEPES, pH 7.4, 150 mM NaCl, and 2 mM magnesium acetate for 2 h. The FA values were measured on a Molecular Devices Spectramax M5 spectrofluorimeter, with excitation and emission wavelengths at 485 and 525 nm, respectively. Equilibrium dissociation constants (KD) were determined by plotting the FA values as a function of TNFα concentration and fitting the data to the following equation
[formula] where Y is the measured anisotropy at a given TNFα concentration x; L is the bicyclic peptide concentration; Qb/Qf is the correction fact for dye-protein interaction; Amax is the maximum anisotropy when all the peptides are bound to TNFα, while Amin is the minimum anisotropy. Competition experiments were performed by incubating 100 nM Asn-Asn-Asn-Lys(FITC)-labeled anticachexin C1 (Table 1), 2 μM of TNFα, and varying concentrations of unlabeled competitor peptide (0-20 μM) in the above buffer for 2 h. The FA values were plotted against the competitor peptide concentration to determine the IC50 values.
To identify residues significant for TNFα binding, each residue of anticachexin C1 (other than D-alanine at position-3, L-lysine at position-4, and L-2,3-diaminopropionic acid (Dap) at position-10) was individually replaced with an alanine (or D-alanine). To facilitate binding analysis by fluorescence anisotropy (FA), a tetrapeptide NNNK (SEQ ID NO: 1) was added to the C-terminus of each bicyclic peptide and the lysine side chain was labeled with fluorescein isothiocyanate (FITC) during solid-phase synthesis (Scheme 1). The three asparagine residues were added to improve the aqueous solubility of the bicyclic peptides. The bicyclic peptide was prepared by first synthesizing the full-length linear sequence on Rink amide resin using standard Fmoc/HBTU chemistry. The side chains of the two internal cyclization residues, L-lysine and Dap, were protected with monomethoxytrityl (Mmt) groups, whereas the C-terminal lysine was protected with an allyloxycarbonyl (Alloc) group. After removal of the N-terminal Fmoc group, a trimesic acid was coupled to the N-terminal amine using HBTU as the coupling agent. Next, the Mmt groups were selectively removed from the Lys and Dap side chains by 2% TFA and the peptide was cyclized by treatment with (benzotriazol-1-yloxy)tripyrrolidinophosphonium hexafluorophosphate (PyBOP). The Alloc group on the C-terminal lysine side chain was removed by treatment with Pd(PPh3)4 and the bicyclic peptide was selectively labeled at the C-terminal lysine by treating the resin with FITC. […] On the other hand, phenylglycine (Phg)-1 and glycine-7 play more minor roles in binding.
In general terms: Fluorescence polarisation rises when a labelled molecule tumbles more slowly, as on binding a larger partner.
Turning to `CCCC[C@@H]1NC(=O)c2cc3cc(c2)C(=O)NC[C@@H](C(=O)N[C@@H](CCCCNC(=S)Nc2ccc4c(c2)C(=O)OC42c4ccc(O)cc4Oc4cc(O)ccc42)C(N)=O)NC(=O)[C@H](Cc2ccccc2)NC(=O)[C@@H](CCCCN)NC(=O)CNC(=O)[C@@H](Cc2c[nH]cn2)NC(=O)[C@H](Cc2c[nH]c4ccccc24)NC(=O)[C@H](CCCCNC3=O)NC(=O)[C@@H](CO)NC(=O)[C@H](Cc2ccc(O)cc2)NC1=O` [Compound C1-50] ([Nle]Y[dS]KW[dH]G[dK]F[Dap]K(FITC)-NH2; linker N-4-10 via Trimesoyl), the “Reduction of TNFα binding affinity (fold)” value is approximately 30 fold.

The same test, now with this note: Table 5; residue 11 variants with Lys(FITC).
`CCCC[C@@H]1NC(=O)c2cc3cc(c2)C(=O)NC[C@@H](C(=O)N[C@@H](CC(=O)NCCOCCOCC(=O)N[C@@H](CCCCNC(=S)Nc2ccc4c(c2)C(=O)OC42c4ccc(O)cc4Oc4cc(O)ccc42)C(N)=O)C(=O)NCC)NC(=O)[C@H](Cc2c[nH]cn2)NC(=O)[C@@H](CCCCN)NC(=O)CNC(=O)[C@@H](Cc2c[nH]cn2)NC(=O)[C@H](Cc2c[nH]c4ccccc24)NC(=O)[C@H](CCCCNC3=O)NC(=O)[C@@H](CO)NC(=O)[C@H](Cc2ccc(O)cc2)NC1=O` [Compound C1-60] ([Nle]Y[dS]KW[dH]G[dK]H[Dap]D([AEEA-Lys(5-FITC)NH2])-NHEt; linker N-4-10 via Trimesoyl): the Kd was 380 ± 140 nM. On the same count and under the same terms, with `CCCC[C@@H]1NC(=O)c2cc3cc(c2)C(=O)NC[C@@H](C(=O)N[C@@H](CC(=O)NCCOCCOCC(=O)N[C@@H](CCCCNC(=S)Nc2ccc4c(c2)C(=O)OC42c4ccc(O)cc4Oc4cc(O)ccc42)C(N)=O)C(=O)NC(C)C)NC(=O)[C@H](Cc2c[nH]cn2)NC(=O)[C@@H](CCCCN)NC(=O)CNC(=O)[C@@H](Cc2c[nH]cn2)NC(=O)[C@H](Cc2c[nH]c4ccccc24)NC(=O)[C@H](CCCCNC3=O)NC(=O)[C@@H](CO)NC(=O)[C@H](Cc2ccc(O)cc2)NC1=O` [Compound C1-61] ([Nle]Y[dS]KW[dH]G[dK]H[Dap]D([AEEA-Lys(5-FITC)NH2])-NHiPr; linker N-4-10 via Trimesoyl) the figure was 420 ± 210 nM; with `CCCC[C@@H]1NC(=O)c2cc3cc(c2)C(=O)NC[C@@H](C(=O)N2CCC[C@@H](C(=O)NCCOCCOCC(=O)N[C@@H](CCCCNC(=S)Nc4ccc5c(c4)C(=O)OC54c5ccc(O)cc5Oc5cc(O)ccc54)C(N)=O)C2)NC(=O)[C@H](Cc2c[nH]cn2)NC(=O)[C@@H](CCCCN)NC(=O)CNC(=O)[C@@H](Cc2c[nH]cn2)NC(=O)[C@H](Cc2c[nH]c4ccccc24)NC(=O)[C@H](CCCCNC3=O)NC(=O)[C@@H](CO)NC(=O)[C@H](Cc2ccc(O)cc2)NC1=O` [Compound C1-64], 340 ± 230 nM; with `CCCC[C@@H]1NC(=O)c2cc3cc(c2)C(=O)NC[C@@H](C(=O)Nc2cn(C)cc2C(=O)NCCOCCOCC(=O)N[C@@H](CCCCNC(=S)Nc2ccc4c(c2)C(=O)OC42c4ccc(O)cc4Oc4cc(O)ccc42)C(N)=O)NC(=O)[C@H](Cc2c[nH]cn2)NC(=O)[C@@H](CCCCN)NC(=O)CNC(=O)[C@@H](Cc2c[nH]cn2)NC(=O)[C@H](Cc2c[nH]c4ccccc24)NC(=O)[C@H](CCCCNC3=O)NC(=O)[C@@H](CO)NC(=O)[C@H](Cc2ccc(O)cc2)NC1=O` [Compound C1-65], 1900 ± 900 nM.

For a further test, the target named is T2, Recombinant TNFα containing an N-terminal 13-aa ybbR tag (human, UniProt P01375 77-233, biotin at the ybbR tag in the ELISA assays).
T2 construct: Expressed in E. coli; Same construct used unlabelled (FA) and biotinylated on NeutrAvidin (ELISA); also called tumor necrosis factor-alpha; human TNFα; not shown: N-terminal 13-aa ybbR tag
T2 sequence (P01375 77-233): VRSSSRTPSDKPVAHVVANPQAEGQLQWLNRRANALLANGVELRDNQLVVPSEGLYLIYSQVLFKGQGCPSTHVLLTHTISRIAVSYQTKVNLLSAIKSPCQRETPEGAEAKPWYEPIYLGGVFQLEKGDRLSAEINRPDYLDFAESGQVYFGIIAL
The test can be described thus: FA.
Conditions: not given
Regarding [Nle]Y[dS]KW[dH]G[dK]H[Dap]NK(FITC)-NH2 (linker N-4-10 via trimesoyl″, C1-35 core with R11 as printed) [C1-52], the “fold reduction in affinity against C1-35” value came to 3 fold.

In another test the target is T2, Recombinant TNFα containing an …. The test can be described thus: FA, FITC-peptide + TNFα titration.
Conditions: not given
With [Phg]Y[dA]KY[dF]G[dA]H[Dap]NNNK(FITC(3))-NH2 (linker N-4-10 via trimesoyl″) [Anticachexin C1 D-Lys8 → D-Ala, NNNK(FITC)-tagged], the dissociation constant Kd was determined as 5900 nM. On the same count and under the same terms, with [Phg]Y[dA]KY[dF]A[dK]H[Dap]NNNK(FITC(3))-NH2 (linker N-4-10 via trimesoyl″) [Anticachexin C1 Gly7 → Ala, NNNK(FITC)-tagged] the figure was 1200 nM. In the case of [Phg]Y[dA]KY[dA]G[dK]H[Dap]NNNK(FITC(3))-NH2 (linker N-4-10 via trimesoyl″) [Anticachexin C1 D-Phe6 → D-Ala, NNNK(FITC)-tagged], the Kd amounted to 3400 nM. For B1, the Kd was determined as 11000 nM. Still for that read-out and setting: as for [Phg]Y[dA]KY[dF]G[dK]A[Dap]NNNK(FITC(3))-NH2 (linker N-4-10 via trimesoyl″) [Anticachexin C1 His9 → Ala, NNNK(FITC)-tagged], the figure is 4400 nM; as for B2, 13000 nM; as for AY[dA]KY[dF]G[dK]H[Dap]NNNK(FITC(3))-NH2 (linker N-4-10 via trimesoyl″) [Anticachexin C1 Phg1 → Ala, NNNK(FITC)-tagged], 1000 nM.

For the next test the target is unchanged. Description: FA; against C1.
Conditions: not given
On the procedure:
(§1) The FA values were measured on a Molecular Devices Spectramax M5 spectrofluorimeter, with excitation and emission wavelengths at 485 and 525 nm, respectively. Equilibrium dissociation constants (KD) were determined by plotting the FA values as a function of TNFα concentration and fitting the data to the following equation $$Y = \frac{\left(Amin + \left(Amax \times \frac{Q_b}{Q_f} - Amin\right)\left(\frac{(L+x+K_d) - \sqrt{((L+x+K_d)^2 - 4Lx)}}{2L}\right)\right)}{\left(1 + \left(\frac{Q_b}{Q_f} - 1\right)\left(\frac{(L+x+K_d) - \sqrt{((L+x+K_d)^2 - 4Lx)}}{2L}\right)\right)}$$
(§2) where Y is the measured anisotropy at a given TNFα concentration x; L is the bicyclic peptide concentration; Qb/Qf is the correction fact for dye-protein interaction; Amax is the maximum anisotropy when all the peptides are bound to TNFα, while $Amin$ is the minimum anisotropy. […] The FA values were plotted against the competitor peptide concentration to determine the IC$50$ values.
As for [Phg]Y[dA]KY[dF]G[dA]H[Dap]NNNK(FITC(3))-NH2 (linker N-4-10 via trimesoyl″) [Anticachexin C1 D-Lys8 → D-Ala, NNNK(FITC)-tagged], the “Fold of Affinity Reduction” value came out at 7 fold.

Turning to [Phg]Y[dA]KY[dF]A[dK]H[Dap]NNNK(FITC(3))-NH2 (linker N-4-10 via trimesoyl″) [Anticachexin C1 Gly7 → Ala, NNNK(FITC)-tagged], the “Fold of Affinity Reduction” value is 1.5 fold. On the same count and under the same terms, with [Phg]Y[dA]KY[dA]G[dK]H[Dap]NNNK(FITC(3))-NH2 (linker N-4-10 via trimesoyl″) [Anticachexin C1 D-Phe6 → D-Ala, NNNK(FITC)-tagged] the figure was 4 fold; with B1, 12 fold. In the case of [Phg]Y[dA]KY[dF]G[dK]A[Dap]NNNK(FITC(3))-NH2 (linker N-4-10 via trimesoyl″) [Anticachexin C1 His9 → Ala, NNNK(FITC)-tagged], the “Fold of Affinity Reduction” value was found to be 5 fold. As for B2, the “Fold of Affinity Reduction” value came to 14 fold. Still for that read-out and setting: with AY[dA]KY[dF]G[dK]H[Dap]NNNK(FITC(3))-NH2 (linker N-4-10 via trimesoyl″) [Anticachexin C1 Phg1 → Ala, NNNK(FITC)-tagged] the figure was 1.2 fold.

The target is the same in another test. Description: FA, FITC-peptide + TNFα titration.
Conditions: not given
This is another data set of the same source. On the procedure: as §1, §2
As to [Nle]Y[dS]KW[dH]G[dK]H[Dap]DK(FITC)-NH2 (linker (positions not given here) via trimesoyl″; not fully specified (bridges), C1-35 core with R11 as printed) [C1-51], the Kd was 3500 nM. The same measure, in the same setting: as for [Nle]Y[dS]KW[dH]G[dK]H[Dap]NK(FITC)-NH2 (linker N-4-10 via trimesoyl″, C1-35 core with R11 as printed) [C1-52], the figure is 790 nM; as for [Nle]Y[dS]KW[dH]G[dK]H[Dap]F[AEEA]K(FITC)-NH2 (linker N-4-10 via trimesoyl″, C1-35 core with R11 as printed) [C1-55], 1000 nM. Consider [Nle]Y[dS]KW[dH]G[dK]H[Dap]I[AEEA]K(FITC)-NH2 (linker N-4-10 via trimesoyl″, C1-35 core with R11 as printed) [C1-57], for which the dissociation constant (Kd) turned out to be 510 nM.

Turning to [Nle]Y[dS]KW[dH]G[dK]H[Dap][AEEA]K(FITC)-NH2 (linker N-4-10 via trimesoyl″, C1-35 core with R11 as printed) [C1-54], the Kd is 5100 nM.
